From publication PMC8009664

Molecular target: calmodulin (CaM), recombinant bovine 1-149 (UniProt P62157)
Test: ITC, peptide titrated into CaM
Conditions: reference: unphosphorylated H1H2; sites S648

Substance: NHE1 (Na+/H+ exchanger 1, hNHE1) H1H2, 622-692 (from UniProt P19634) Akt-phosphorylated H1H2 (pS648)
- KD: weaker; reference Kd,1 0.27 ± 0.07; Kd,2 560 ± 10
